The record followed here is patent CN115873113A (SHANGHAI INST MATERIA MEDICA CAS, dated 2023).

T1: Biotin-CaSR蛋白 (人体细胞外钙敏感受体, Human extracellular calcium-sensing receptor) (human, UniProt P41180 20-870, limits assumed, biotinylated (Biotin-CaSR); site not stated)
T1 construct: Purified, detergent-solubilised CaSR; It was biotinylated and captured on NeutrAvidin plates for ELISA or on streptavidin biosensors for Octet
T1 sequence (looked up): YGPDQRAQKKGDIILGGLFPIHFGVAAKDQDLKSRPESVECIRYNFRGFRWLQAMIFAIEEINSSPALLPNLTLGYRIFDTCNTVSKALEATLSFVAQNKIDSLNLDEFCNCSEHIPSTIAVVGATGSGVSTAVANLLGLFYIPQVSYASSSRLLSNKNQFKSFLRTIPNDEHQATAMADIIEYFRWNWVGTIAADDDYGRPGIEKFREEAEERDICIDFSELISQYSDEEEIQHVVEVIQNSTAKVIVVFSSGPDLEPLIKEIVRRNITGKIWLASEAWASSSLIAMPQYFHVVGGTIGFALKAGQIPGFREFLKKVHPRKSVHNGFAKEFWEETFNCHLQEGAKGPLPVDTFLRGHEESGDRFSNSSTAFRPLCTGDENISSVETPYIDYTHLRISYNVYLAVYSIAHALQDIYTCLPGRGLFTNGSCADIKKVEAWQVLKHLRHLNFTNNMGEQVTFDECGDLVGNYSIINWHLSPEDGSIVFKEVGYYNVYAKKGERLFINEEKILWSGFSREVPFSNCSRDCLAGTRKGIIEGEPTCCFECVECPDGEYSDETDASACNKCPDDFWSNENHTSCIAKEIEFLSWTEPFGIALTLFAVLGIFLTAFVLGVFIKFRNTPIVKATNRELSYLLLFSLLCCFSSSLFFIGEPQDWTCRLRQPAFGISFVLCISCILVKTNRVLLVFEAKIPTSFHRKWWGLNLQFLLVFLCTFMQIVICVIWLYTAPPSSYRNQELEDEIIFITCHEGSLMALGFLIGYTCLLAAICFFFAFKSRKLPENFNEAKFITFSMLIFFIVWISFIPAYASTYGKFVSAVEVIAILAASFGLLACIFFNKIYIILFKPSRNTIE

T2: CaSR (细胞内钙流实验中的受体) (human, UniProt P41180 20-1078)
T2 sequence (looked up): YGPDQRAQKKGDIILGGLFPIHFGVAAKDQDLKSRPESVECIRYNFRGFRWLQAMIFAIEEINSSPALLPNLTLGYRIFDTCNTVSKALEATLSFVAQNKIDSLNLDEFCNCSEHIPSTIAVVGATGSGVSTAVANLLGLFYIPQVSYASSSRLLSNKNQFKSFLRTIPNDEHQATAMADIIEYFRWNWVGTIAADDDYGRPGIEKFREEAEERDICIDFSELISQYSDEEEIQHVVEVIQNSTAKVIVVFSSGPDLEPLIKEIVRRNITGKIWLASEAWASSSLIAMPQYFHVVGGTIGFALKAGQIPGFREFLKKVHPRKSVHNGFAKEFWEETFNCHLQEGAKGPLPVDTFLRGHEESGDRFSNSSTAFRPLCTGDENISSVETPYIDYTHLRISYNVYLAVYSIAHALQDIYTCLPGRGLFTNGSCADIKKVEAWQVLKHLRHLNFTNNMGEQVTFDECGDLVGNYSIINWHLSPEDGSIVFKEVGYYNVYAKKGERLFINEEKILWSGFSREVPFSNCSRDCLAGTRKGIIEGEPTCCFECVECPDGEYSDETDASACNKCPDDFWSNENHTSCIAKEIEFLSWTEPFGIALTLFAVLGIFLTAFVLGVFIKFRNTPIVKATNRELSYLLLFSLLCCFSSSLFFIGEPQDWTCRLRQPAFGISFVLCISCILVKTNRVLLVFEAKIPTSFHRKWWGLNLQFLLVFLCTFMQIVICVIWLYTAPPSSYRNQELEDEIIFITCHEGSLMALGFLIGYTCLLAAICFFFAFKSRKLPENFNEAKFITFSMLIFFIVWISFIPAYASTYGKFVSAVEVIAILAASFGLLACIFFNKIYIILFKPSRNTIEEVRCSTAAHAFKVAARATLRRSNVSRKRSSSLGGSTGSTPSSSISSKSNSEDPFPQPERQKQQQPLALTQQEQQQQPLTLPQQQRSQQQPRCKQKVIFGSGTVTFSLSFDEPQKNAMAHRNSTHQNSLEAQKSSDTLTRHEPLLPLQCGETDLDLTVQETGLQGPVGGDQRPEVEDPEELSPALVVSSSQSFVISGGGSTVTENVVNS

B1: 纳米抗体NB32 (VHH)
VHH: QVQLQESGGGSVQAGGSLTLSCAASEYKHRYSTYSMGWFRQAPGKEREGVAAIYSDGGTRYADSVKGRFTISKDNAKSTLYLLMNSLKPEDTAMYYCAASQTFRGWYPYEYNYWGQGTQVTVSS
notes: Camel VHH expressed in E. coli and purified on a nickel column; It was detected through an HA tag; also called 抗体株NB32
B2: 纳米抗体NB88 (VHH)
VHH: QVQLQESGGGSVQAGESLRLSCAASRYGYSRNWMGWFRQPPGKEREGVAVIYTGGSKTAYADAVKGRFIISLDNANNTVYLQMNSLKPEDTAMYYCAAGLVAYGRRWSPEAYKYWGQGTQVTVSS
notes: Camel VHH expressed in E. coli and purified on a nickel column; It was detected through an HA tag; also called 抗体株NB88
B3: 纳米抗体2D4 (VHH)
VHH: LQESGGGSVQIGGSLRLSCAASGYTYMRYSSFCMGWFRQAPGKEREGVAAIDSGRRTTHADSVKGRFTISRDNAKNTLYLQMNSLKPEDTAMYYCAARDVGYCGGYWARRDFAYWGQGTQVTVSS
notes: Camel VHH expressed in E. coli and purified on a nickel column; It was detected through an HA tag; also called 抗体株2D4
B4: 纳米抗体2D11 (VHH)
VHH: QVQLQESGGGSVQAGGSLRLSCAASGFPISTYDMGWFRQAPGKEREGVVGITDSFSIKYEDSVKGRFTISRDNAKNALYLQMNSLKPEDTGMYYCAAGDARWSLLLRAEQYNYWGQGTQVTVSS
notes: Camel VHH expressed in E. coli and purified on a nickel column; It was detected through an HA tag; also called 抗体株2D11
B5: 纳米抗体1C12 (VHH)
VHH: QVQLQESGGGSVQAGGSLRLSCTASRYTYNSPLYMAWFRQAPGKEREGVAHIDSDGSITYTDSVKGRFTISRDNAKTTLYLQMNNLNPEDTAMYYCAADPLHRWSHRLEAIGYRYWGQGTQVTVSS
notes: Camel VHH expressed in E. coli and purified on a nickel column; also called 抗体株1C12

In one experiment the target is T1, Biotin-CaSR蛋白 (人体细胞外钙敏感受体, Human …). The experiment in a line: BLI (Octet-Red96), Biotin-CaSR on streptavidin biosensor, nanobody in solution.
For the molecule B1, the Kd was determined as 3.2 nM.

Consider B2, for which the dissociation constant Kd came to 3.9 nM.

For the molecule B3, the Kd was determined as 0.46 nM.

B4: the Kd is 0.24 nM.

As to B5, the Kd is 0.9 nM.

The next experiment addresses T2, CaSR (细胞内钙流实验中的受体). Description: cell-based or functional assay.
Regarding B1, the “钙流 IC50 (细胞外钙离子浓度1.2mM)” value is 301 nM.

On to B2, for which the “钙流 IC50 (细胞外钙离子浓度1.2mM)” value worked out at 101 nM.

For B3, the “钙流 IC50 (细胞外钙离子浓度1.2mM)” value was 65 nM.

For the molecule B4, the “钙流 IC50 (细胞外钙离子浓度1.2mM)” value worked out at 41 nM.

As for B5, the “钙流 IC50 (细胞外钙离子浓度1.2mM)” value came out at 107 nM.

In the next experiment the target is T1, Biotin-CaSR蛋白 (人体细胞外钙敏感受体, Human …). The experiment in a line: ELISA, Biotin-CaSR on NeutrAvidin plate, nanobody titrated 1e-11 to 1e-6 mol/l, anti-HA detection.
As for B1, the EC50 was determined as 3.

In the case of B2, the EC50 is 1.

Consider B3, for which the EC50 was determined as 0.9.

Turning to B4, the EC50 was 1.9.

In the case of B5, the EC50 was determined as 2.1.
